From patent US20040073001A1 (Kyowa Kirin, published 2004) come the findings set out here.

Assay [1] concerns the target T1, GAL4-β-catenin fusion protein (GAL4 BD fused with mouse β-catenin armadillo domain, residues 128 to 683) (yeast; mouse, UniProt P04386 1-147; Q02248 128-683).
T1 construct: Bait of the yeast two-hybrid system; also called mβ-catenin arm; β-catenin arm bait plasmid
Kind of assay: yeast two-hybrid, β-galactosidase activity. The text has this: The respective bait plasmids were cotransfected with the B9L cDNA fragment-expressing clone obtained by the two-hybrid system in Example 1 into yeast HF7C strain, and the binding between the B9L protein and the respective β-catenin partial fragments were examined by the existence of β-galactosidase activity in the transformants. […] Thus, it was considered that the B9L protein binds to the N-terminal region of β-catenin arm (armadillo repeats 1-6).
In order to further examine which region of the B9L protein binds to the β-catenin arm, two-hybrid system was performed as follows. […] Each plasmid was cotransfected with the β-catenin arm bait plasmid prepared in Example 1 into yeast HF7C strain, and the binding of each B9L protein partial fragment and β-catenin arm was examined based on the presence or absence of β-galactosidase activity in the transformants. […] Thus, the B9L protein was indicated to bind to the β-catenin arm at the region of residues 292-439 in the amino acid sequence represented by SEQ ID NO: 2.

The target in assay [2] is T2, Mutated mouse β-catenin S33Y (mouse, UniProt Q02248 1-781).
T2 construct: Expressed from pMKITneo in COS-7 or NIH 3T3 cells; also called S33Y β-catenin
T2 sequence (looked up): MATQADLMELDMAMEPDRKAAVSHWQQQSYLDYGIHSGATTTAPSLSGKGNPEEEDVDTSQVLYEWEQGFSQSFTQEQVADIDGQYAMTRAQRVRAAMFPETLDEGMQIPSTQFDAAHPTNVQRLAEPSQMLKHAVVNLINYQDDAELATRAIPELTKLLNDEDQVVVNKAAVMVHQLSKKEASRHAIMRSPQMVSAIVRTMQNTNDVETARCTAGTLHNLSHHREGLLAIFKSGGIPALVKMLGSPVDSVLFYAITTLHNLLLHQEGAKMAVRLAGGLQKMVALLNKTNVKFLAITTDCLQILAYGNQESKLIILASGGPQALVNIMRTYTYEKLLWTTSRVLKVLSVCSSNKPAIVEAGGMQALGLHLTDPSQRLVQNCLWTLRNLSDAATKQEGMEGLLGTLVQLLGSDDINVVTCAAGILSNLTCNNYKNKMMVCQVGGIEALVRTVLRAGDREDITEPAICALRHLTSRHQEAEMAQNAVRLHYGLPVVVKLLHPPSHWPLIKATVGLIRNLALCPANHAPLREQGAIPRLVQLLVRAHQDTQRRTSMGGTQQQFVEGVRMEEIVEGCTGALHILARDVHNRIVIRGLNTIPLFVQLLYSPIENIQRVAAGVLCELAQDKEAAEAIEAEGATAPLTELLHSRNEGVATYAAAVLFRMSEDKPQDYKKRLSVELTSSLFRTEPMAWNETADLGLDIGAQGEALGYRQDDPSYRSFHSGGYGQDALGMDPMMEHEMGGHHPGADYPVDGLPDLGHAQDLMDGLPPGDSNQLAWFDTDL
Kind of assay: co-immunoprecipitation from COS-7 lysates with anti-GFP antibody, Western blotting with anti-β-catenin antibody. The text has this: The B9L cDNA fragment obtained in Example 1 was inserted into pEGFP-C2, green fluorescent protein (GFP) expression vector (Clontech), to construct an expression plasmid for GFP-B9L fusion protein (hereinafter abbreviated as GFP-B9L). Mutated mouse β-catenin S33Y cDNA wherein serine 33, the target site of GSK-3β-mediated phosphorylation, is substituted with tyrosine was subcloned into animal cell expression plasmid vector pMKITneo (Nakamura et al., Genes to cells 3: 395 (1998)) to construct an expression plasmid for S33Y β-catenin. These plasmids were transfected using LipofectAMINE (Life Technologies) into monkey kidney cell line COS-7 cells (ATCC: CRL-1651) for forced expression. After 24 hr, the cells were harvested to prepare cell lysates by adding buffer A containing 1% Triton X-100. The cell lysates were reacted with anti-GFP antibody or anti-β-catenin antibody at 4° C. for 1 hr to form an immune complex between GFP-B9L or S33Y β-catenin and the respective antibody, and then Protein G-Sepharose 4B (Amersham Pharmacia Biotech), which is capable of binding to IgG, was added to the reaction solution to adsorb the immune complex. The Protein G-Sepharose 4B was washed well with lysis buffer A, and SDS-PAGE sample buffer was added to elute the immune complex. […]
A general note: Immunoblotting shows a protein as a band on a membrane.

B1: GAL4 AD fusion of B9L partial fragment, residues 292-564 of SEQ ID NO: 2 (other, not shown: large carriers)
chain: PSAGTPQSQPPPLPPPPPAPGSAPPALPPEGPPEDTSQDLAPNSVGAASTGGGTGGTHPNTPTAATANNPLPPGGDPGSAPGSALLGEATPTGNGQRNLVGSEGLSKEQLEHRERSLQTLRDIERLLLRSGETEPFLKGPPGGAGEGGPPAQAPSAAQPPPSAPPGGLKKYEEPLQSMISQTQSLGGPPLEHEVPGHPQGGDMGQQMNMMMQRLGQDSLTPEQVAWRKLQEEYYEEKRRKEEQIGLHGGRPLQDMVGMGGMMGRGPPPPYHSK
notes: Two-hybrid prey
Regarding B1, the binding result in assay [1] is on record as “binds”.

B2: GAL4 AD fusion of B9L partial fragment, residues 245-439 of SEQ ID NO: 2 (other, not shown: large carriers)
chain: LANTAAEAVLQGRAESILAYHQQNVPRAKLDQAPKVPPTPEPLPLNTPSAGTPQSQPPPLPPPPPAPGSAPPALPPEGPPEDTSQDLAPNSVGAASTGGGTGGTHPNTPTAATANNPLPPGGDPGSAPGSALLGEATPTGNGQRNLVGSEGLSKEQLEHRERSLQTLRDIERLLLRSGETEPFLKGPPGGAGEGG
notes: Two-hybrid prey
In the case of B2, the binding result in assay [1] was “binds”.

B3: GFP-B9L fusion protein (B9L cDNA fragment, SEQ ID NO: 4, in pEGFP-C2) (other)
chain: LANTAAEAVLQGRAESILAYHQQNVPRAKLDQAPKVPPTPEPLPLNTPSAGTPQSQPPPLPPPPPAPGSAPPALPPEGPPEDTSQDLAPNSVGAASTGGGTGGTHPNTPTAATANNPLPPGGDPGSAPGSALLGEATPTGNGQRNLVGSEGLSKEQLEHRERSLQTLRDIERLLLRSGETEPFLKGPPGGAGEGGPPAQAPSAAQPPPSAPPGGLKKYEEPLQSMISQTQSLGGPPLEHEVPGHPQGGDMGQQMNMMMQRLGQDSLTPEQVAWRKLQEEYYEEKRRKEEQIGLHGGRPLQDMVGMGGMMGRGPPPPYHSK
notes: Expressed in COS-7 and NIH 3T3 cells; not shown: green fluorescent protein (GFP) as encoded by vector pEGFP-C2 (Clontech)
For B3, the binding result in assay [2] is listed as “binds”.

B4: GAL4 AD fusion of B9L partial fragment, residues 292-439 of SEQ ID NO: 2 (other, not shown: large carriers)
chain: PSAGTPQSQPPPLPPPPPAPGSAPPALPPEGPPEDTSQDLAPNSVGAASTGGGTGGTHPNTPTAATANNPLPPGGDPGSAPGSALLGEATPTGNGQRNLVGSEGLSKEQLEHRERSLQTLRDIERLLLRSGETEPFLKGPPGGAGEGG
notes: Two-hybrid prey; also called B9L fragment of residues 292-439
As for B4, in assay [1], the binding result is given as “binds”. Regarding LANTAAEAVLQGRAESILAYHQQNVPRAKLDQAPKVPPTPEPLPLNT (other, not shown: large carriers, Two-hybrid prey) [GAL4 AD fusion of B9L partial fragment, residues 245-291 of SEQ ID NO: 2], the binding result in assay [1] was “no binding”.

B5: GAL4 AD fusion of B9L partial fragment, residues 440-564 of SEQ ID NO: 2 (other, not shown: large carriers)
chain: PPAQAPSAAQPPPSAPPGGLKKYEEPLQSMISQTQSLGGPPLEHEVPGHPQGGDMGQQMNMMMQRLGQDSLTPEQVAWRKLQEEYYEEKRRKEEQIGLHGGRPLQDMVGMGGMMGRGPPPPYHSK
notes: Two-hybrid prey
Consider B5, for which the binding result in assay [1] was “no binding”.
